Laboratory results taken from paper PMC6935267 (Cell Reports, 2019).

Target: T1, MERS-CoV S1-NTD (residues 1-351) with 8xHis-tag and Twin-Strep-tag (MERS-CoV (deposit 6PXH of this paper))
T1 chain: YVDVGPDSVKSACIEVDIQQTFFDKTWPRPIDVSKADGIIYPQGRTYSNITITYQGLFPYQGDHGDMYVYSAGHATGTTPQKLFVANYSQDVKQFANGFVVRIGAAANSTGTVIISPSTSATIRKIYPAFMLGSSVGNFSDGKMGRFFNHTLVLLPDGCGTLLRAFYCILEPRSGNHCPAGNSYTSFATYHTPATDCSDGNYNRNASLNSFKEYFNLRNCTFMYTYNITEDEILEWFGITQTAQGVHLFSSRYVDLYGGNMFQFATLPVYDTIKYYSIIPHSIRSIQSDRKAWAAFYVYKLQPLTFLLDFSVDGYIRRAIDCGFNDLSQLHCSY
Test: SPR

B1: G2 Fab (Fab, V domains shown)
VH: QVQLQQSGGELVKPGASVKLSCKTSGFTFSSSYISWLKQKPGQSLEWIAWIYAGTGGTEYNQKFTGKAQVTVDTSSSTAYMQFSSLTTEDSAIYYCARGGSSFAMDYWGQGTSVTVSS
VL: not shown
  Kd: 28 nM
